These results are taken from patent US20220143204A1 (LINXIS B V, published 2022).

For test [1], the target named is T1, human PDGFRB on SCC VII cells (human, UniProt P09619 33-1106).
T1 construct: whole, on cells; also called hPDGFRB; SCC-hPDGFRB
The test is described as follows: binding assay on SCC VII cells transfected with hPDGFRB. The procedure:
(§1) Based on their high affinity and binding to non-overlapping hPDGRB epitopes, VHHs SP02P, SP12P SP14P and […] were selected for the design of biparatopic VHH constructs and produced in a similar way as described in example 6.1. (FIG. 15A). The binding affinities of the biparatopic constructs were determined with an ELISA assay with the periplasm (FIG. 15A). Moreover, based on their high affinity and binding to non-overlapping rPDGRB epitopes, VHHs SP26P and SP28P were selected for the design of a biparatopic VHH construct and produced in a similar way as described in example 6.1. The formed biparatopic SP28P-SP26P was conjugated to IRDye800CW (SP28P-SP26P-IRDye800CW conjugation method as described in example 9.2) and subjected to a binding assay SCC VII cells transfected with hPDGFRB, rPDGFRB or hIGF2R were performed (FIG. 15B). […] In order to create a biparatopic VHH construct which is cross-reactive for hPDGFRB and rPDGFRB, VHH SP02P binding to hPDGFRB and VHH SP026P binding to rPDGFRB were selected and the biparatopic construct SP02P-SP26P was produced in a similar way as described in example 6.1. (FIG. 15C). Construct SP02P-SP26P was conjugated to IRDye800CW (SP02P-SP26P-IRDye800CW, conjugation method as described in example 9.2) and subjected to bindings assays on SCC VII cells transfected with hPDGFRB, rPDGFRB or hIGF2R were performed (FIG. 15C).

In test [2] the target is T1, human PDGFRB on SCC VII cells. The test is described as follows: binding assay of the IRDye800CW conjugate on SCC VII cells transfected with human PDGFRB, fluorescence at 800 nm. The procedure: as §1
In test [3] the target is T2, rat IGF2R on cells (rat, UniProt A0A8I6GLL6 43-2479).
T2 construct: whole, on cells; also called rIGF2R
The test is described as follows: binding assay on SCC VII cells over-expressing rat IGF2R. On the procedure:
(§2) To determine whether 13F11-13E8 is cross-reactive against rIGF2R, the construct was conjugated to IRDye800CW (13F11-13E8-IRDye800CW, conjugation method as described in example 9.2) and the binding affinity was determined using a binding assay on SCC VII cells over-expressing either human, or rat IGF2R (FIG. 12).

In test [4] the target is T3, human IGF2R on cells (human, UniProt P11717 41-2491).
T3 construct: whole, on cells; On SCC VII cells over-expressing human IGF2R, NIH 3T3 2.2 cells transiently transfected with hIGF2R, or A549 cells, as told under assay or readout; also called hIGF2R
T3 sequence (P11717 41-2491): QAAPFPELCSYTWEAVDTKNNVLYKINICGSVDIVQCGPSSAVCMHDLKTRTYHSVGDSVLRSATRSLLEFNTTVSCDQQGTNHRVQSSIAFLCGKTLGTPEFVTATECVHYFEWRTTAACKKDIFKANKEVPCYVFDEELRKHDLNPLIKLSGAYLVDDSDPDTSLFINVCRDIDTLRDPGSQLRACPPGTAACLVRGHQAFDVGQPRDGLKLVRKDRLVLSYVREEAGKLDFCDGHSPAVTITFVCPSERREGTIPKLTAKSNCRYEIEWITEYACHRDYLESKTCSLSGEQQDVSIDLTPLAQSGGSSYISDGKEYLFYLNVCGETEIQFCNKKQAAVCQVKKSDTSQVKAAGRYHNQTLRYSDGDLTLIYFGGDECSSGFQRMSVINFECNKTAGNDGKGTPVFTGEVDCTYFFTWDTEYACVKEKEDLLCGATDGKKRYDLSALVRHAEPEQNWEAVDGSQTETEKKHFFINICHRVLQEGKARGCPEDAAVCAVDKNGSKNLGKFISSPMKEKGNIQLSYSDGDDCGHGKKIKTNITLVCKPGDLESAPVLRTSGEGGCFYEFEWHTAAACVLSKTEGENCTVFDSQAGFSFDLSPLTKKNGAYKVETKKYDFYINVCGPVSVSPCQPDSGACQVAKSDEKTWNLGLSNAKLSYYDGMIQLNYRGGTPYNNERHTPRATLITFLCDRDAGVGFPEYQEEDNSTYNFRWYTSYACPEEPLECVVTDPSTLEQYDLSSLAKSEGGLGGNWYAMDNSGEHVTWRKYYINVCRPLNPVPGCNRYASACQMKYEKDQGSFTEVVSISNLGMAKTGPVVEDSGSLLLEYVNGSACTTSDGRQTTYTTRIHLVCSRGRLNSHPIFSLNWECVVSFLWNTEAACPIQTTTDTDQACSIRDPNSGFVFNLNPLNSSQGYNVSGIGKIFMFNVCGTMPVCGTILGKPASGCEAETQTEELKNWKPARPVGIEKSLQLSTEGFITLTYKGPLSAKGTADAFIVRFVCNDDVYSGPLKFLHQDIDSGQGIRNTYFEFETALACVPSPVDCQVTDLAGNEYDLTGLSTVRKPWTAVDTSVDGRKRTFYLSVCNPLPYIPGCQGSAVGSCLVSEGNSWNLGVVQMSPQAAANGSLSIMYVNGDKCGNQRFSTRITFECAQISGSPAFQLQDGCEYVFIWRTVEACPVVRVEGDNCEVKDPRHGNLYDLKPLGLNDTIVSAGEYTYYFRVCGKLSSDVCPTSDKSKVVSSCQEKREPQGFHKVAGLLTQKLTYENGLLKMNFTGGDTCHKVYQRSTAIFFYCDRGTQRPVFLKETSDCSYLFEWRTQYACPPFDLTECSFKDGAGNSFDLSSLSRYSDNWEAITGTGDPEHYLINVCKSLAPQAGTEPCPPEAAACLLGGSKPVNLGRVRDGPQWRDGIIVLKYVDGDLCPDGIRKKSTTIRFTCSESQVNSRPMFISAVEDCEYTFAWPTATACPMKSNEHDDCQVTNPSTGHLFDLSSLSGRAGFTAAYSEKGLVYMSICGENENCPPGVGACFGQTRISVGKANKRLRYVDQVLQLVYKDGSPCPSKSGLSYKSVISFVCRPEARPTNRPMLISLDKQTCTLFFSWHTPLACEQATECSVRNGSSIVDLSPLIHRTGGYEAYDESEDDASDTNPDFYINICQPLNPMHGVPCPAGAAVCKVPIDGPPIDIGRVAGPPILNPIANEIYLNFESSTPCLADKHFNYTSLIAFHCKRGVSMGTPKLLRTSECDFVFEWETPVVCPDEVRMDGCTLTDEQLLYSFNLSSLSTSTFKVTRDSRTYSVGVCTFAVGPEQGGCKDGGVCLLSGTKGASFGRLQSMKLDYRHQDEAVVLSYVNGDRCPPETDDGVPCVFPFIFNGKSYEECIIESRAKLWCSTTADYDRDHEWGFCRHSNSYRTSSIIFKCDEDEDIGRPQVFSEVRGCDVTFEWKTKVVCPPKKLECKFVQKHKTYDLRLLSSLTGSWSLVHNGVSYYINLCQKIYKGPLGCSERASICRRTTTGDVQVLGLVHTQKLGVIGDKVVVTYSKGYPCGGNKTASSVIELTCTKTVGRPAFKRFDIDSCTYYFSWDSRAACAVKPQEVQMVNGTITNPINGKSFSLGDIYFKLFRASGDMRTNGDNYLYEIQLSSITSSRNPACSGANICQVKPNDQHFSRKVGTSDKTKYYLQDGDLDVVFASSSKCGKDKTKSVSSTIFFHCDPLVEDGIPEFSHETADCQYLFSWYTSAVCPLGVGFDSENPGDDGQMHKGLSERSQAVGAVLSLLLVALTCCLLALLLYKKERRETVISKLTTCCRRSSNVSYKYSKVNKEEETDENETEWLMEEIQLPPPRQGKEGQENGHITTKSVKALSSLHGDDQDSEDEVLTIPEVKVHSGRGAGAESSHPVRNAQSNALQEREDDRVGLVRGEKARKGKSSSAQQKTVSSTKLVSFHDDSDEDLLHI
The test is described as follows: binding assay on SCC VII cells over-expressing human IGF2R. The procedure:
as §2

Test [5] has as its target T4, human PDGFRB on LX-2 cells (human, UniProt P09619).
T4 construct: full-length receptor on the cell surface; The list has human PDGFRB only on SCC VII cells
The test is described as follows: binding assay on the human hepatic stellate cell line LX-2 (Example 4).

For test [6], the target named is T1, human PDGFRB on SCC VII cells. The test is described as follows: binding assay on SCC VII cells transfected with human PDGFRB (Example 4).
Test [7] has the same target. The test is described as follows: binding assay on SCC VII cells transfected with human PDGFRB-GFP, VHH detected with anti-VHH rabbit serum and IRDye800CW secondary antibody; binding in % (n=6) [left panel]. On the procedure: (§3) FIG. 9. Binding of selected VHHs on SCC VII cells transfected with either the human or rat PDGFRB receptor (SCC-hP or SCC-rP) fused to GFP. The VHH is detected using anti-VHH rabbit serum and donkey-anti-rabbit secondary antibody labelled with IRDye800CW.
(§4) The results are summarized in FIGS. 5 and 6 for the hPDGFRB and rPDGFRB VHHs, respectively. […] Moreover, the binding affinities of the hPDGFRB VHHs human were also determined on the human hepatic stellate cell (HSC) line LX-2 (FIG. 5).

Test [8] deals with T5, human PDGFRB extracellular domain (human, UniProt P09619 33-532).
T5 construct: extracellular domain; also called hPDGFRB-ECD; human PDGFRB ectodomain
T5 sequence (P09619 33-532): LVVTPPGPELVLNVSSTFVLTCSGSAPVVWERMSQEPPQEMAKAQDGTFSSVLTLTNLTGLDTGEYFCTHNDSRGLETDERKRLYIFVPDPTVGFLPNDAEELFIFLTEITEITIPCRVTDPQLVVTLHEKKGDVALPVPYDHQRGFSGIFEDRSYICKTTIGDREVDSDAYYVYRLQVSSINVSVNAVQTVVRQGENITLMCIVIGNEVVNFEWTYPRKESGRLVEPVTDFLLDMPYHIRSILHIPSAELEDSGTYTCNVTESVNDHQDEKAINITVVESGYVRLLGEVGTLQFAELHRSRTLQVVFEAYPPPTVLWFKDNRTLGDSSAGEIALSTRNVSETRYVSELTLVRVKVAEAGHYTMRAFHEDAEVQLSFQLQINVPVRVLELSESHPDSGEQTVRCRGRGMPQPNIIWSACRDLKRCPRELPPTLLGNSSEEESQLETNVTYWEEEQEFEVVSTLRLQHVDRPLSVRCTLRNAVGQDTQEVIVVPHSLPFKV
The test is described as follows: binding assay on immobilised human PDGFRB ectodomain, apparent affinity (Example 4).

In test [9] the target is PDGFRB ECD. The test is described as follows: competition ELISA on PDGFRB ECD: unconjugated competitor titrated against SP26P-IRDye800, fluorescence at 800 nm. The procedure: Competition ELISAs were carried out to determine whether the hPDGFRB specific binders (FIG. 5) and rPDGFRB specific binders (FIG. 6) recognize distinct epitopes on hPDGFRB or rPDGFRB, respectively. The hPDGFRB binding VHHs SP02P, SP05P, SP12P and SP14P and the rPDGFRB binder SP26P were conjugated to IRDye800CW (VHH-IRDye800CW, conjugation method as described in example 9.2) and each conjugated VHH was mixed with unconjugated competitor in trifold serial dilutions and incubated on immobilized […]. Two VHHs share (part of) the same epitope when the fluorescence signal of the VHH-IRDye800CW decreases upon increasing concentration of unconjugated VHH. Furthermore, using a similar method as described in section 5.1, binding epitope competition between the hPDGFRB binding VHH SP02P and rPDGFRB binding VHH SP26P was performed. No competition was observed between the two VHHs qualifying them as building blocks for biparatopic binding molecules (FIG. 11).
Sequence of PDGFRB ECD (P09619 33-532): as above
A general note: An ELISA detects its analyte on a solid surface through an enzyme-linked reagent.

Test [10] addresses T5, human PDGFRB extracellular domain. The test is described as follows: binding and competition assays of Examples 4 and 5.
The target of test [11] is T6, rat PDGFRB extracellular domain (rat, UniProt Q05030 32-531).
T6 construct: extracellular domain; also called rPDGFRB-ECD; rat PDGFRB ectodomain
T6 sequence (looked up): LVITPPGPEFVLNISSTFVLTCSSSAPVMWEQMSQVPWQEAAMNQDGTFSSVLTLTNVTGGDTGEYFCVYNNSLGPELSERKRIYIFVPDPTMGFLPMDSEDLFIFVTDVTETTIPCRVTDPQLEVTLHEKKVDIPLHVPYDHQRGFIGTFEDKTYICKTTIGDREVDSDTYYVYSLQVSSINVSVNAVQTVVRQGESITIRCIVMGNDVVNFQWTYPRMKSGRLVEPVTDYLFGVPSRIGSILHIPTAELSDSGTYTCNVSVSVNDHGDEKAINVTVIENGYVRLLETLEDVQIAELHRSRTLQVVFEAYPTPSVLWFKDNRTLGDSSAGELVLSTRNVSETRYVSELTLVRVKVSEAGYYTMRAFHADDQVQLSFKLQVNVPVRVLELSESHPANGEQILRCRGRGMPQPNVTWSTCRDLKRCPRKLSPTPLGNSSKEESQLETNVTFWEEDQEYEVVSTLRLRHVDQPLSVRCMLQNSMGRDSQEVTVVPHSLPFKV
The test is described as follows: binding assay on immobilised rat PDGFRB ectodomain, apparent affinity (Example 4).

The target of test [12] is T7, rat PDGFRB on SCC VII cells (rat, UniProt Q05030 32-1097).
T7 construct: whole, on cells; also called rPDGFRB; SCC-rPDGFRB
The test is described as follows: binding assay on SCC VII cells transfected with rat PDGFRB (Example 4).

Test [13] concerns the target T7, rat PDGFRB on SCC VII cells. The test is described as follows: binding assay on SCC VII cells transfected with rat PDGFRB-GFP, VHH detected with anti-VHH rabbit serum and IRDye800CW secondary antibody; binding in % (n=2) [right panel]. On the procedure: as §3, §4

T1 sequence (P09619 33-1106): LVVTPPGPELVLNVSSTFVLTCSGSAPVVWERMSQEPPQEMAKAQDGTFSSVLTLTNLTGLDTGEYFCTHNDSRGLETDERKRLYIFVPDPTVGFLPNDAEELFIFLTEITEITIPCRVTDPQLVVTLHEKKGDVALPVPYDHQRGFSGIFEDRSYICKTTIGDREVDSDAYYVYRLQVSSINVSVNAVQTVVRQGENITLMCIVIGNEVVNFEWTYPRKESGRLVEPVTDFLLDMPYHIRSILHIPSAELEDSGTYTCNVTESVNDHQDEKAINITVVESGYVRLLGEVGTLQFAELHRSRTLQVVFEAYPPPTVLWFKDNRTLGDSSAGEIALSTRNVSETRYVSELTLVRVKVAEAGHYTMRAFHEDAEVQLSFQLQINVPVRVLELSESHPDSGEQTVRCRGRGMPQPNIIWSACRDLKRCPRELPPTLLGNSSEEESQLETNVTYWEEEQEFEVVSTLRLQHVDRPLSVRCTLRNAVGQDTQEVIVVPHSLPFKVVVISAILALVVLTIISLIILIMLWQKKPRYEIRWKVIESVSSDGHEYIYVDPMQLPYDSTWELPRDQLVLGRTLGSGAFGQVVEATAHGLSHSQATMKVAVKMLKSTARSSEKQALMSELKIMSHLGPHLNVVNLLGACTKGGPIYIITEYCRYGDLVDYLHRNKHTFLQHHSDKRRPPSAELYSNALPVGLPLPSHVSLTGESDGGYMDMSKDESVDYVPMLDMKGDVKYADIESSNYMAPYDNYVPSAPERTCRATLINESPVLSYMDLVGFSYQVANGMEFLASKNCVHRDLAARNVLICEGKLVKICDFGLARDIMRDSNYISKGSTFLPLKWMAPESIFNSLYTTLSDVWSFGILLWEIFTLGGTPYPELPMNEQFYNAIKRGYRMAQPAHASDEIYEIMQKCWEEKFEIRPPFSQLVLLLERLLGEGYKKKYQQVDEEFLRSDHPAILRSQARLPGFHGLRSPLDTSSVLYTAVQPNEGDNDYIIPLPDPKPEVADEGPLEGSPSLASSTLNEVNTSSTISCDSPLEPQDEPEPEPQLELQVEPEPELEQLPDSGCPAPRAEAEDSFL
T4 sequence (P09619 33-1106 limits assumed): as the sequence (P09619 33-1106) above

B1: SP02P-SP26P-IRDye800CW (VHH, not shown: small tags and cut ends)
chain: EVQLVESGGGLVQAGGSLRLSCAASESISSIEQMGWFRQAPGKQRALVAINTYGGRTVYTNSVEGRFTMSRDSAKNMVYLQMTSLEPEDTAVYYCYAQTTAWRGGVWGQGTQVTVSSGGGGSGGGGSGGGGSEVQLVESGGGLVQAGGSLRLSCAASGRSFSSSVMGWFRQTPGKEREFVAATRWTAASTHYADSVKGRFTISRDHAENAVFLQMNSLKPEDTAVYYCAAGNYLDTAQYRYNYWGQGTQVTVSS
modifications: IRDye800CW by maleimide chemistry on the C-terminal free cysteine
notes: Biparatopic tandem VHH
For B1, the Kd in test [1] was below 5 nM; in test [2], 2.2 nM.

B2: 13F11-13E8-IRDye800CW (VHH, not shown: small tags and cut ends)
chain: EVQLVESGGRLVQPGDSLRLSCAASGRTFSDNAMGWFRQAPGKERRFVAGISWAGGSTYYSDSVKGRFTISRDNAKNTVYLQMNSLKPEDTAVYYCAAGLRAWVQRMPKDYNYWGQGTQVTVSSGGGGSGGGGSGGGGSEVQLVESGGGLVQAGGSLRLSCAASRSISPMGWYRQAPGKQRELVAIMPSSGPPIYADSVQGRFTISRDNAKNTVYLQMNSLKPEDTAVYYCNVGGGYWGQGTQVTVSS
modifications: IRDye800CW by maleimide chemistry on the C-terminal free cysteine
notes: Biparatopic tandem VHH; also called IRD800CW conjugated 13F11-13E8; F11E8
For B2, the Kd in [3] and in [4] was below 10 nM in each case.

B3: SP02P (VHH)
VHH: EVQLVESGGGLVQAGGSLRLSCAASESISSIEQMGWFRQAPGKQRALVAINTYGGRTVYTNSVEGRFTMSRDSAKNMVYLQMTSLEPEDTAVYYCYAQTTAWRGGVWGQGTQVTVSS
notes: Llama VHH; on phage in the phage ELISA
One may read the EC50 (read off the curve) as the concentration at which the effect is half-maximal. Higher therefore signals a need for much substance. Regarding B3, the Kd was 6.7 nM in test [5], 4.1 nM in test [6] and 6.2 nM in test [8]. For the same molecule, the “EC50 (read off the curve)” value in test [7] was around 4 nM.

B4: SP28P-SP26P-IRDye800CW (VHH, not shown: small tags and cut ends)
chain: EVQLVESGGGLVQAGGSLRLSCAASGSIVSFNGINWYRQAPGKQREWVGGITQGGNTMYADSVRGRFTISRDNTKNTMYLQMNSLKPEDTAVYYCRRPPVASWGQGTQVTVSSGGGGSGGGGSGGGGSEVQLVESGGGLVQAGGSLRLSCAASGRSFSSSVMGWFRQTPGKEREFVAATRWTAASTHYADSVKGRFTISRDHAENAVFLQMNSLKPEDTAVYYCAAGNYLDTAQYRYNYWGQGTQVTVSS
modifications: IRDye800CW by maleimide chemistry on the C-terminal free cysteine
notes: Biparatopic tandem VHH; also called SP28-SP26P; SP28-26P
B4 gave a Kd in test [2] of 32.4 nM.

B5: SP26P (VHH)
VHH: EVQLVESGGGLVQAGGSLRLSCAASGRSFSSSVMGWFRQTPGKEREFVAATRWTAASTHYADSVKGRFTISRDHAENAVFLQMNSLKPEDTAVYYCAAGNYLDTAQYRYNYWGQGTQVTVSS
notes: Llama VHH; on phage in the phage ELISA; also called SP026P
For B5, the “IC50 (read off the curve)” value in test [9] was around 40 nM. Moreover, in [10], the binding result is recorded as “binds”.

B6: SP28P (VHH)
VHH: EVQLVESGGGLVQAGGSLRLSCAASGSIVSFNGINWYRQAPGKQREWVGGITQGGNTMYADSVRGRFTISRDNTKNTMYLQMNSLKPEDTAVYYCRRPPVASWGQGTQVTVSS
notes: as for B3
Take B6: the values for the Kd in [11] and in [12] were 6 nM and 0.5 nM, respectively. Also, in test [13], the “EC50 (read off the curve)” value was around 0.6 nM.
